From paper PMC3903462 (Biochemistry, 2013) come the findings set out here.

This data set deals with the molecule itself. Nature of the data set: SEC-MALS. In general terms: In gel filtration, larger molecules generally elute earlier.

B1: HsaD from Mycobacterium tuberculosis H37Rv (enzyme)
chain: MTATEELTFESTSRFAEVDVDGPLKLHYHEAGVGNDQTVVLLHGGGPGAASWTNFSRNIAVLARHFHVLAVDQPGYGHSDKRAEHGQFNRYAAMALKGLFDQLGLGRVPLVGNSLGGGTAVRFALDYPARAGRLVLMGPGGLSINLFAPDPTEGVKRLSKFSVAPTRENLEAFLRVMVYDKNLITPELVDQRFALASTPESLTATRAMGKSFAGADFEAGMMWREVYRLRQPVLLIWGREDRVNPLDGALVALKTIPRAQLHVFGQCGHWVQVEKFDEFNKLTIEFLGGGR
The term stoichiometry N denotes the number of molecules, sites or subunits per partner or assembly. For B1, the “stoichiometry N” value was determined as 4.
